One may read the Kd as the equilibrium constant for the complex coming apart.

B1: BRPF2 bromodomain, wild-type, N-terminal His6-tagged (domain or fragment)
chain: EQVAMELRLTPLTVLLRSVLDQLQDKDPARIFAQPVSLKEVPDYLDHIKHPMDFATMRKRLEAQGYKNLHEFEEDFDLIIDNCMKYNARDTVFYRAAVRLRDQGGVVLRQARREVDSIGLEEASGMHLPERPA
B2: BRPF2 bromodomain I586F mutant (domain or fragment)
chain: B1 chain with I31F

What all share (experiment): ITC
On the technique in general: Isothermal titration calorimetry measures the heat released or taken up as one component is titrated into another.

For experiment [1], the target named is B1.
Experiment [2] has as its target histone H4K5acK8ac (1-15) peptide (UniProt P62805 2-16, acetyl-lysine at K5 and K8).
Experiment [3] concerns the target histone H4K5acK12ac (1-15) peptide (UniProt P62805 2-16, acetyl-lysine at K5 and K12).
Experiment [4] deals with histone H4K8acK12ac (1-15) peptide (UniProt P62805 2-16, acetyl-lysine at K8 and K12).
Experiment [5] addresses histone H4K5ac (1-15) peptide (UniProt P62805 2-16, acetyl-lysine at K5).
For experiment [6], the target named is histone H4K8ac (1-15) peptide (UniProt P62805 2-16, acetyl-lysine at K8).
The target in experiment [7] is histone H4K12ac (1-15) peptide (UniProt P62805 2-16, acetyl-lysine at K12).

Substitutions are numbered along the chain they refer to. In names and notes the source's numbering stands. No end group written: not given here.

GKGGAK(Ac)RHRKV (peptide, UniProt P62805 12-22, looked up) [histone H4K16ac (11-21) peptide]: binding in experiment [1] was characterised by a dissociation constant (Kd) of 20.5 ± 1.4 µM.
In turn, KSTGGK(Ac)APRKQ (peptide, UniProt P68431 10-20, looked up) [histone H3K14ac (9-19) peptide] came in with a Kd in experiment [1] of 10.2 ± 0.2 µM.
As for B1, the Kd in experiment [2] worked out at 28.5 ± 1.6 µM; in experiment [3] it was 3.2 ± 0.1 µM; in experiment [4], 44.7 ± 3.5 µM; in experiment [5] it was 3.5 ± 0.4 µM; in experiment [6], 6.2 ± 0.6 µM; in experiment [7], 18.2 ± 1.2 µM.
Take B2: the binding result in experiment [5] is “binds”.
